Data: patent publication US20140030274A1

Experiments:
Aβ(M1-42) (human) = experiment: cell-based or functional assay
Aβ(M1-40) (human) = experiment: cell-based or functional assay
Sequence of Aβ(M1-40) (human) (peptide, as listed by the source): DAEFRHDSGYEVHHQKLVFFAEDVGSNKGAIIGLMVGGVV

Sequence of Aβ(M1-42) (human) (peptide, as listed by the source): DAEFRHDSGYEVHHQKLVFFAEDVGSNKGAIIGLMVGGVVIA

“human anti-thrombin (from UniProt P01008 33-464)” showed an effect on Aβ42 aggregation (ThT assay) (molar equivalents) (Aβ(M1-42) (human)) of 0.1 and a molar equivalents needed for the same inhibition of Aβ40 aggregation (ThT assay) (molar equivalents) (Aβ(M1-40) (human)) of 0.01.
